# Data as given in patent US20240124857A1, “COMPOSITION FOR GUT HEALTH” (DUPONT NUTRITION BIOSCIENCES APS, priority 2021, published 2024).
# B1: CRC22620: GDA1/CD39 family enzyme, accession NBS62745.1, SEQ ID NO:16 (protein, listed as Betaproteobacteria sp.)
# chain: EDAARYLAVIDAGSSGSRLHLYERTAAERSVAVKQLFEAKAGEALSSFERSPGDAGPRGIQPLLEQLLDRLALLNIERSAVHVHVLATAGMRRLDADNPAAAQVIYQSVRHTLSSAGVTARRIETLSGHLEGVYAWVDVNDLSGALASTPAGATVAVIEVGGASAQLAYSGEALAGAPVTAVRLNGRSHQVVSLTWLGLGQDEARRAMLNAARSRSNADEEHCYPDNRKAAGGLSAFDADGSRHLVARGRFSFEQCSEMYDAVIRPFDLPPLATAIRQSRRPLVGLASVYFSLADWQVIGQPGTLASTLRGQCEGEDAYGDKVIGFIRRDPKNRFAQTACANGTFIHALLFGPAGLRVDPAQVSAVARINGQPPSWARGFALLGR
# B2: CRC22386: GDA1/CD39 family enzyme, accession WP_173236575.1, SEQ ID NO:12 (protein, listed as Legionella antarctica)
# chain: GTVSCNEHQCIAVIDAGSTGSRIHVYAYDMDETNTPVHINEVWTKKIKPGFATIEPNYESIEAYLVTLLSGAPNQDIPVYFYATAGMRLLPASKQKLYYQELQRWFSQQHQWRLIDAKTITGNEEALYDWLSVNYHLDTLKSIQNKSVGVMDMGGASVQIVFPIQKNEEINSNSQVELDLYGHHVNLYVHSFLGLGQTEMSHQFLNSVSCFANDYPLPDGESGRGNAPSCKQEVSSLMNGVHGVNKTIQPVLTANPVDTWFAIGGLTNLADNKLFHFENGELTNQNLMQQADSQICHQQWDKLNSEFPNDDYVYEYCLLSAYYYALMVDGYGIYPEQTVNYVSSALNLDWTKGVVLHH
# B3: CRC25082: Acid phosphatase (Class A), accession WP_050460978.1, SEQ ID NO:19 (protein, listed as Herbaspirillum autotrophicum)
# chain: KGAAGFLNGQTAPDSLAILPPPPAEDSVAFQADKAQYETGHVLRDPERVEQARQDADYRNFGHAFSAAFGMEISATHTPVLYQLLTEVLQDSHDYAMKAAKNHYKRVRPFVVYKDPTCTPGQDEKMALSGSYPSGHASFGWAAALVLAEINPARQTEILQRGYAFGKSRVICGAHWQSDVDNGQLMGAAVVAALHSNSQFAAALNAAKNEFAGLRAQDNKK
# B4: CRC22387: GDA1/CD39 family enzyme, accession WP_127099836.1, SEQ ID NO:13 (protein, listed as Legionella sp.)
# chain: QSSPCEKQQCIAIVDAGSTGSRLHIYAYDLDVTKTPIHIKELWNKKITPGFARIEANTNTIDSYLTILLADSPIKKIPIYFYATAGMRLLPQMKQKKYYDELSSWFKKHSEWQLVEAKTITGNEEGLYDWLSVNYHLGNFESPTNKSIGVMDMGGASVQIVFPIAETPTINDKSQIQVNLYGRHYNLYVHSFLGLGQTEMSHQFLNSASCFVNNYPLPDGAEGQGNALSCEQEVSSLMNQVHGVNQLIQPLLAANPVDSWYSIGGISNLADSQFFNFQHSQLTNQDLLEQADSQICHQQWEDINNQYPDDDYVYQYCLFSAYYYALMVDGYGLYPEQTINYLPPQQNIDWTTGVVLHQQR
# B5: CRC22605: GDA1/CD39 family enzyme, accession WP_133471262.1, SEQ ID NO:14 (protein, listed as Paraglaciecola sp.)
# chain: QSKKPCYIVYDAGSSGTRLYIYEQLGANLISHEGPKVSALADPIRYTHGKDLSDLDTITNEVASALDLIKLDGPLEEGKPKWSGFDWSKQCEAQSVKVFATAGMRIAEQINPADSLVLWQTLASKINAKVGHNIKVEARTLTGFEEGLFAWLSVKDVYPSGHYGMVEMGGASSQITFPCPQCSLANDAVKTVTVDGKPIQIYSYSYLGLGQNEAPYSLPFGVAGQVPKSCSYGVGANNPDWTIASCAVEIPITAKGSNTDIIDPYNYTKTGTKGTTNTLPAAHKNIPKWLLMGAFNYAKETDIDDFCFNQHDGYYNAFTACFNPIYLDKYLKTLNIQAEQSSKVDVSWTQGAVICQIENCLATITPPPVCRWMKSGCLAY
# B6: CRC22606: GDA1/CD39 family enzyme, accession OQW93475.1, SEQ ID NO:15 (protein, listed as Beggiatoa sp.)
# chain: ETNGPAACHIVYDAGSSGTRLYIYEQQDKAWLEHEGPKVSALADPVREIRGKHWKDAESVTIEVVSALDSIKQDGPVKGDKPAWKAFDWTKHCQIKSAGVYATAGMRLAEQANKERSVTLWASLKQKLAAKLGPTVDIEARTLTGYEEGLYAWLAVREQQPDDSFAIAEMGGASAQITFPCAKCDENDPDTKTVQLSGKHLQIYSYSFLGLGQDEASHSLGFPTSCANGIGTQQSGWKAQDCANQIQLTGSKGIRDPYDFDGEQRGAHEQPPIAQADSNRWFLTGAFNYMNASNIETYCLKDPKLSEEESFCFRSIYPEKYLETLKIPVNSPKMNVSWTQGAVICKANSCLEAATKTPPLCRWLDKGCLP
# B7: CRC22112: GDA1/CD39 family enzyme, accession KTD66016.1, SEQ ID NO:10 (protein, listed as Legionella santicrucis)
# chain: ESAECTEHQCMAVVDAGSTGSRAHIFAYDLDETNTPSQIHEIWSKKIKPGLATIEANQDTIDAYLTILFSGAPKQNIPVYFYATGGMRLIPQTKQKLYYKEIQNWFNQQSIWQLIEAKTITGNDEALYDWLAVNYHIGTLKSSTTEPIGVMDIGGASVQIAFPIPKDVETNKSSQVELDLYGKHLNLFVHSFLGLGQNEVTHQLLDTNSCFSEGYPLPGGNLGQGDAVICQQEVSSLINRVHKVQSEVQPTLATNRITMWYAIGGLTNLVESEPFQFQNNQITNQDLLQQANSLICHQQWEGLSTQFPDNEYIESFCLLPAFYYALMIDGYGISVTQPVKYISPRENLDWTTGVVLHH
# B8: CRC22383: GDA1/CD39 family enzyme, accession WP_058475114.1, SEQ ID NO:11 (protein, listed as Legionella quateirensis)
# chain: ADNPCTNHQCIAVIDAGSTGSRLHVFSYDVDETRSPININEIWNKKIKPGFATIEPNSNTIDAYLTTLLSGAPNQQIPVYFYATAGMRLLPVSKQKKYYDELQHWFSQQSQWQLVEAKTITGNDEALYDWLSVNYHLGTLQKSLNQSVGVMDMGGASVQIVFPIQKNSELNTRSQVELDLYGQHYTLYVQSFLGLGQTEVAHQFLNSAPCFSNDYPLPDGESGQGNASACEQEVSRLMTEVHKVNNVIQPLLAANPVDSWYSIGGISNLADSSLFHFENSKLTNQNLLQQADSQVCHQQWDSLNSQFPDDEYVYQYCLFSAYYYALMVDGYGIVPDQSINYIPPAQNLDWTMGVVLHH
# Assay: pH profile of enzymes on 1 mM ATP
# Assay type: biochemical
# Details: 50 mM trisodium citrate/citric acid, 5 mM CaCl2, relative to the highest value
# Method: The pH profile of additional enzymes of interest was assayed using 1 mM ATP, in 50 mM trisodium citrate/citric acid buffer with 5 mM CaCl2. Absorbance was read at 620 nm and all values were set relative to the highest one. Commercial potato apyrase was used as reference. […]
Molecule,"Relative activity on ATP, pH 3","Relative activity on ATP, pH 3.5","Relative activity on ATP, pH 4","Relative activity on ATP, pH 4.5","Relative activity on ATP, pH 5","Relative activity on ATP, pH 5.5","Relative activity on ATP, pH 6","Relative activity on ATP, pH 6.5"
B1,0.0,0.0,0.0,0.1,0.4,0.7,1.0,0.8
B2,0.0,0.0,0.0,0.0,0.2,0.6,0.8,1.0
B3,0.0,0.0,0.0,0.1,0.3,0.7,1.0,0.8
B4,0.1,0.0,0.0,0.1,0.3,0.5,1.0,1.0
B5,0.0,0.0,0.0,0.0,0.4,0.8,1.0,1.0
B6,0.0,0.0,0.0,0.3,0.6,0.8,0.9,1.0

# Assay: ATPase activity at 0.05 ppm enzyme on 0.1 mM ATP (absorbance 620 nm)
# Assay type: biochemical
# Details: 50 mM IVIES buffer pH 5
# Method: Enzyme activity towards ATP or ADP at pH 3 to 9: The ability of candidate enzymes to degrade ATP or ADP to AMP and free phosphate (Pi) was measured using a standard malachite green phosphate detection kit (Sigma Aldrich cat no. MAK307). The enzyme reactions were carried out in 96-well plates with a total volume of 150 μL and contained 250 μM of a substrate, 50 mM of a buffer, 5 mM CaCl2, and a variable concentration of enzyme. The substrate was ATP or ADP. The buffer was glycine (pH 3), acetate (pH 4, 4.5, 5), bis-Tris (pH 5.5, 6, 6.5), or Tris (pH 7, 8, 9). The concentration of enzyme varied from about 1 μg/mL to 1 ng/mL and was adjusted based on the activity of the enzyme so that the amount of phosphate released during the assay was with the dynamic range of the assay (5-100 μM phosphate). The enzyme concentration was determined by the absorbance at 280 nm and using the predicted molecular weight and molar extinction coefficient to calculate the concentration. The enzyme reaction was initiated by the addition of 15 μL enzyme with 135 μL of the other reaction components such that the final reaction composition was as previously described. The reaction was stopped after 5 min by mixing 80 μL of the reaction mixture with 20 μL of the malachite green working reagent. The malachite green working reagent was prepared according to the manufacturer's protocol by mixing 100 parts reagent A with 1 part reagent B. Phosphate standard solutions (0-80 μM) and a negative control reaction without enzyme were also mixed with the malachite green working reagent. All samples were tested in duplicate. The malachite green reaction mixture was allowed to rest at room temperature for 45-60 min and the absorbance at 620 nm was measured. Lastly, the absorbance of the phosphate standards were used to convert the absorbance readings of each sample into phosphate concentrations and the negative control was subtracted from each reaction.
# Enzymes of interest were assayed against ATP substrate. The ATPase activity was measured at 0.05 ppm concentration in 50 mM IVIES buffer pH 6 and pH 5 with 0.1 mM ATP as substrate as described in Example 1. Commercial potato apyrase was used as reference. The absorbance at 620 nm was measured and the absorbance of a blank sample (water) was subtracted from each sample.
row,"Activity on ATP (absorbance at 620 nm, blank subtracted), pH 5.0",Molecule
1,0.13,B1
2,0.04,B7
3,0.36,B2
4,0.93,B3
5,0.36,B4
6,0.07,B8
7,0.50,B5
8,0.43,B6

# Same assay, conditions: 50 mM IVIES buffer pH 6
row,"Activity on ATP (absorbance at 620 nm, blank subtracted), pH 6.0",Molecule
1,0.22,B1
2,0.06,B7
3,0.25,B2
4,0.65,B3
5,0.11,B4
6,0.10,B8
7,0.28,B5
8,0.21,B6
